Here are results for two molecules from PMC9461283 (Biosafety and Health, 2022).

In assay [1] the target is SARS-CoV-2 S receptor-binding domain (RBD) (SARS-CoV-2 (isolate Wuhan-Hu-1), UniProt P0DTC2). The assay is described as follows: SPR.
The target is the same in assay [2]. The assay is described as follows: SPR. The source holds these as a separate data set. For orientation: Surface plasmon resonance follows binding to a sensor surface in real time, without labels.

B1: human ACE2 ectodomain (ectoACE2), N-terminal 367 aa (domain or fragment)
chain: QSTIEEQAKTFLDKFNHEAEDLFYQSSLASWNYNTNITEENVQNMNNAGDKWSAFLKEQSTLAQMYPLQEIQNLTVKLQLQALQQNGSSVLSEDKSKRLNTILNTMSTIYSTGKVCNPDNPQECLLLEPGLNEIMANSLDYNERLWAWESWRSEVGKQLRPLYEEYVVLKNEMARANHYEDYGDYWRGDYEVNGVDGYDYSRGQLIEDVEHTFEEIKPLYEHLHAYVRAKLMNAYPSYISPIGCLPAHLLGDMWGRFWTNLYSLTVPFGQKPNIDVTDAMVDQAWDAQRIFKEAEKFFVSVGLPNMTQGFWENSMLTDPGNVQKAVCHPTAWDLGKGDFRILMCTKVTMD
As to B1, in assay [1], the affinity, expressed as Kd, was 0.0612 µM. In other words, the double-digit nanomolar range.

B2: African Green monkey (Chlorocebus sabaeus) ACE2 ectodomain (ectoACE2), N-terminal 367 aa (domain or fragment)
chain: QSTIEEQAKTFLDKFNPEAEDLFYQSSLASWNYNTNITEENVQNMNNAGEKWSAFLKEQSTLAQMYPLQAIQNLTVKLQLQALQQNGSSVLSEDKSKRLNTILNTMSTIYSTGKVCNPNNPQECLLLDPGLNEIMEKSLDYNERLWAWEGWRSEVGKQLRPLYEEYVVLKNEMARANHYKDYGDYWRGDYEVNGVDGYDYNRDQLIEDVERTFEEIKPLYEHLHAYVRAKLMNAYPSYISPTGCLPAHLLGDMWGRFWTNLYSLTVPFGQKPNIDVTDAMVNQAWNAQRIFKEAEKFFVSVGLPNMTQGFWENSMLTDPGNVQKVVCHPTAWDLGKGDFRIIMCTKVTMD
Regarding B2, in assay [2], the Kd (usually the free concentration of one partner at which half of the binding sites on the other are occupied at equilibrium, for simple one-to-one binding) was determined as 0.0676 µM. That is a double-digit nanomolar value.
